In PMC9759531, “USP5-Beclin 1 axis overrides p53-dependent senescence and drives Kras-induced tumorigenicity” (Nature Communications, 2022):

Target: the molecule itself
Test: SDS-PAGE without DTT (non-reducing) and western blot; purified recombinant His-USP5 or His-USP5^C195A in PBS treated with H2O2 for 10 min; SDS-PAGE with or without DTT (Fig. 5g, Supplementary Fig. S5e); western blot of H2O2-treated protein (Fig. 5k)

B1: His-USP5 (purified recombinant) (enzyme, human, UniProt P45974 1-858, looked up)
chain: MAELSEEALLSVLPTIRVPKAGDRVHKDECAFSFDTPESEGGLYICMNTFLGFGKQYVERHFNKTGQRVYLHLRRTRRPKEEDPATGTGDPPRKKPTRLAIGVEGGFDLSEEKFELDEDVKIVILPDYLEIARDGLGGLPDIVRDRVTSAVEALLSADSASRKQEVQAWDGEVRQVSKHAFSLKQLDNPARIPPCGWKCSKCDMRENLWLNLTDGSILCGRRYFDGSGGNNHAVEHYRETGYPLAVKLGTITPDGADVYSYDEDDMVLDPSLAEHLSHFGIDMLKMQKTDKTMTELEIDMNQRIGEWELIQESGVPLKPLFGPGYTGIRNLGNSCYLNSVVQVLFSIPDFQRKYVDKLEKIFQNAPTDPTQDFSTQVAKLGHGLLSGEYSKPVPESGDGERVPEQKEVQDGIAPRMFKALIGKGHPEFSTNRQQDAQEFFLHLINMVERNCRSSENPNEVFRFLVEEKIKCLATEKVKYTQRVDYIMQLPVPMDAALNKEELLEYEEKKRQAEEEKMALPELVRAQVPFSSCLEAYGAPEQVDDFWSTALQAKSVAVKTTRFASFPDYLVIQIKKFTFGLDWVPKKLDVSIEMPEELDISQLRGTGLQPGEEELPDIAPPLVTPDEPKGSLGFYGNEDEDSFCSPHFSSPTSPMLDESVIIQLVEMGFPMDACRKAVYYTGNSGAEAAMNWVMSHMDDPDFANPLILPGSSGPGSTSAAADPPPEDCVTTIVSMGFSRDQALKALRATNNSLERAVDWIFSHIDDLDAEAAMDISEGRSAADSISESVPVGPKVRDGPGKYQLFAFISHMGTSTMCGHYVCHIKKEGRWVIYNDQKVCASEKPPKDLGYIYFYQRVAS
notes: USP5; Treated with H2O2 before the dimerisation assays; also called recombinant USP5; WT USP5; source: E. coli BL21(DE3), purified (HisTrap HP, Superdex 200 increase)
For B1, the “stoichiometry N” value was 2.
